In patent US7470668B2, “Method of use of specific natriuretic peptide receptor c ligands, transgenic non-human mammals expressing specific natriuretic peptide receptor c antagonists and cells thereof” (Enobia Pharma Inc., priority 2005, dated 2008):

How the values were obtained:
rat GC-A = molecular target: T1, rat GC-A (Rattus norvegicus, UniProt P18910); assay: Intracellular cGMP in GC-A transfected HEK293 cells; type: cell-based; settings: 10 nM peptide, 15 min
T1 construct: expressed in transfected cells; host or cells: HEK293, transient, CMV-driven pBK plasmid (gift of Dr. A. De Léan)
T1 sequence (P18910 29-1057): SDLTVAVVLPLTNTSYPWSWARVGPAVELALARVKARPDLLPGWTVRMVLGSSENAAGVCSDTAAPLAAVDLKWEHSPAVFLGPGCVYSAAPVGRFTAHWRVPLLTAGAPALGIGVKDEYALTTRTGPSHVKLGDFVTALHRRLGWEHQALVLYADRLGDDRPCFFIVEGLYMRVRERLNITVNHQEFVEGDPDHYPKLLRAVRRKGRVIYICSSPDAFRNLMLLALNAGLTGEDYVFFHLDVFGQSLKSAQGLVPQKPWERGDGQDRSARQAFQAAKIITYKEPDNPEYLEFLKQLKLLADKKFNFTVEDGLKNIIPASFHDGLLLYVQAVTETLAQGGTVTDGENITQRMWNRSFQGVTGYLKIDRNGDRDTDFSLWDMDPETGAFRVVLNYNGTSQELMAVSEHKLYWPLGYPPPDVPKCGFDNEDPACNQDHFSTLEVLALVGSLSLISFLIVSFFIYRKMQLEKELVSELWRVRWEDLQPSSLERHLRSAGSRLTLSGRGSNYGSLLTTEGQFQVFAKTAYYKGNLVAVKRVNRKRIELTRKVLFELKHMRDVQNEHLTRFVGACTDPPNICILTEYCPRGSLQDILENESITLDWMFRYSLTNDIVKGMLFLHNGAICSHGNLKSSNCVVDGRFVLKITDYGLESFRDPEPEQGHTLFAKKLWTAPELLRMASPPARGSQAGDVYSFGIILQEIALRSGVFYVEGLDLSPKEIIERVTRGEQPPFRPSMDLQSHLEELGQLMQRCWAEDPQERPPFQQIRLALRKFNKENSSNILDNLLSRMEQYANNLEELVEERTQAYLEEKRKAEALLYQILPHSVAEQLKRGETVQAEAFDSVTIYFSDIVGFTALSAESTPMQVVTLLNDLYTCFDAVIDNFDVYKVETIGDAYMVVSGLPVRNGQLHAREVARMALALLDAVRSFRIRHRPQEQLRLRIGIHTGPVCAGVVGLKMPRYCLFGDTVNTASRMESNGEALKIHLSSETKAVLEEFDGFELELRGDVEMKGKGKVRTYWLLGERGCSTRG

endogenous GC-A = molecular target: T2, endogenous GC-A (Homo sapiens, UniProt P16066); assay: ANP-stimulated cGMP in GFP-transfected HEK293 cells (endogenous GC-A); settings: co-incubation with 10 nM peptide (data not shown)
T2 sequence (P16066 33-1061): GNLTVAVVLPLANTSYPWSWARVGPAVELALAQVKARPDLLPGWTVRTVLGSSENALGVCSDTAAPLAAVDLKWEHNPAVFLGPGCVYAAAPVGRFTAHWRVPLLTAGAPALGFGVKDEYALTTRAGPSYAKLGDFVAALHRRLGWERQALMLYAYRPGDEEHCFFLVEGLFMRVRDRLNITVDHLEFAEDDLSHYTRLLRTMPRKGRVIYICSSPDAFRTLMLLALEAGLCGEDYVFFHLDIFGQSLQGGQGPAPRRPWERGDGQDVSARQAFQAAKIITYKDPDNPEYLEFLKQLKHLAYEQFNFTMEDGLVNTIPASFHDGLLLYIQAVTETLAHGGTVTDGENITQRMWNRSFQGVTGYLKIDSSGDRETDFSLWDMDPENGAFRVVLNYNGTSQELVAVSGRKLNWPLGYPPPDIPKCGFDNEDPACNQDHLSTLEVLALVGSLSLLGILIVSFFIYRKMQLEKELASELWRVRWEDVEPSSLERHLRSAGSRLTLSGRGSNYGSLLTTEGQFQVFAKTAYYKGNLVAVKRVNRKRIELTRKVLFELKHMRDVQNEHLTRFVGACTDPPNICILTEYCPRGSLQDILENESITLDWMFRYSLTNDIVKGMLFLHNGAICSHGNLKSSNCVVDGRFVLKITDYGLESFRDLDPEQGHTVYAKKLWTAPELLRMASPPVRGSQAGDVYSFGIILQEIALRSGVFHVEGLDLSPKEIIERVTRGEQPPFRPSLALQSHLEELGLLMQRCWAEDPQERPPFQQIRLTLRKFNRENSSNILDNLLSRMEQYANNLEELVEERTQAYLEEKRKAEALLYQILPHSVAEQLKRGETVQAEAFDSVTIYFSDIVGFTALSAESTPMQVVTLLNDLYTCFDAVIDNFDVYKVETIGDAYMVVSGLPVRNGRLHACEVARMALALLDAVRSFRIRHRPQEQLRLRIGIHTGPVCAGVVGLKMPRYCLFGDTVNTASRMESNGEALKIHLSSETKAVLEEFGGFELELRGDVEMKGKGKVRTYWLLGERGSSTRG

B1: rhOstn[27-133]: N-terminal 6 histidine-tagged recombinant human Ostn amino acids 27-133 produced in E.coli, SEQ ID NO: 57 (protein)
chain: SVDVTTTEAFDSGVIDVQSTPTVREEKSATDLTAKLLLLDELVSLENDVIETKKKRSFSGFGSPLDRLSAGSVDHKGKQRKVVDHPKRRFGIPMDRIGRNRLSNSRG
modifications: N-terminal His6 tag; recombinant mature osteocrin
intracellular cGMP response via GC-A (rat GC-A): failed to activate
effect on ANP signalling (endogenous GC-A): no effect
